In IntAct's records for PubMed 15841490:

B1: SH2 domain-containing protein 1A (Homo sapiens), O60880-1 (parent)
chain: MDAVAVYHGKISRETGEKLLLATGLDGSYLLRDSESVPGVYCLCVLYHGYIYTYRVSQTETGSWSAETAPGVHKRYFRKIKNLISAFQKPDQGIVIPLQYPVEKKSSARSTQGTTGIREDPDVCLKAP
partner: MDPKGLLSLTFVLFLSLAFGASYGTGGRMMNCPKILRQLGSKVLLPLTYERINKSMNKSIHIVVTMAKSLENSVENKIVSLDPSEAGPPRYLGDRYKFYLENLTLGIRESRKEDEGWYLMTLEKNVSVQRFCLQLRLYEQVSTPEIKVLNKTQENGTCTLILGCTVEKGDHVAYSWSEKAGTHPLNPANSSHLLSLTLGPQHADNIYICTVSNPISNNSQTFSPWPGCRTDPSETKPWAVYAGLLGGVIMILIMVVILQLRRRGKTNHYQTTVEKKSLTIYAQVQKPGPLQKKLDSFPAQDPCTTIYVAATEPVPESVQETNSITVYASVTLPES

Variants of: B1
Settings: with slaf1_human SLAMF1, Q13291

effect of a mutation on the interaction	Variant
disrupting interaction strength	MDAVAVYHGKISRETDEKLLLATGLDGSYLLRDSESVPGVYCLCVLYHGYIYTYRVSQTETGSWSAETAPGVHKRYFRKIKNLISAFQKPDQGIVIPLQYPVEKKSSARSTQGTTGIREDPDVCLKAP [G16D]
